Measurements from PMC9352680, “A comprehensive thermodynamic model for RNA binding by the Saccharomyces cerevisiae Pumilio protein PUF4”.

Biological target: T1, PUF4 RNA-binding domain (Saccharomyces cerevisiae, UniProt P25339 537-888)
T1 sequence: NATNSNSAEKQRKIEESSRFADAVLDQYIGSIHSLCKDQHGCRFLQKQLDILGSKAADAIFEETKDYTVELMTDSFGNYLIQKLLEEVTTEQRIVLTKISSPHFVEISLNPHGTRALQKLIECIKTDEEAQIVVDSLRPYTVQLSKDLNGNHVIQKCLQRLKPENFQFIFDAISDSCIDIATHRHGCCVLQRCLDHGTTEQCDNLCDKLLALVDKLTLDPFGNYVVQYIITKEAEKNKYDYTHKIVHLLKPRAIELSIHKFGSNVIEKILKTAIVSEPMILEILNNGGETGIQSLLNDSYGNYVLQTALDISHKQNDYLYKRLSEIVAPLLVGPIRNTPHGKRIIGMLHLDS
Assay: Mg; RNA-MaP; 20 mM Na-HEPES pH 7.4, 30 mM KOAc, 0.75 mM MgCl2, 0.1% Tween-20, 5% glycerol, 0.1 mg/mL BSA, 2 mM DTT; 25 C; 0.0125-409.6 nM protein
Settings: tags: N-His6-TEV cleaved; C-SNAP kept, Cy3B-labelled; label: tethered on chip by stalled RNA polymerase

B1: Ib_S4_P5E.1_K5.1_C5.1_H5.1_[A4C]_A5.1_F5.1_[T9A]_T5.1 (ssRNA)
RNA: UUUGACAACUGAUCGUUCUUUCUUGUCUUAUAAUUCUUUCUCGAUCAGUUGUCUUU
Kd: 57.1 nM

B2: Ib_S4_P5E.1_K5.1_C5.1_H5.1_[A4C]_A5.1_F5.1_[A10T]_T5.1 (ssRNA)
RNA: UUUGACAACUGAUCGUUCUUUCUUGUCUUAUUUUUCUUUCUCGAUCAGUUGUCUUU
Kd: 201 nM

B3: Ib_S4_P5E.1_K5.1_C5.1_H5.1_A5.1_[T5G]_F5.1_[A10G]_T5.1 (ssRNA)
RNA: UUUGACAACUGAUCGUUCUUUCUUGUAGUAUUGUUCUUUCUCGAUCAGUUGUCUUU
Kd: 109 nM

B4: Ib_S4_P5E.1_K5.1_C5.1_H5.1_[T1C]_[G2A]_A5.1_F5.1_T5.1 (ssRNA)
RNA: UUUGACAACUGAUCGUUCUUUCUCAUAUUAUUAUUCUUUCUCGAUCAGUUGUCUUU
Kd: 1660 nM

B5: Ib_S4_P5E.1_K5.1_C5.1_H5.1_A5.1_[A7T]_F5.1_[A10T]_T5.1 (ssRNA)
RNA: UUUGACAACUGAUCGUUCUUUCUUGUAUUUUUUUUCUUUCUCGAUCAGUUGUCUUU
Kd: 10.7 nM

B6: Ic_S4_P5E.1_K5.1_C5.1_H5.1_A5.1_[T5C]_F5.1_[T8C]_T5.1 (ssRNA)
RNA: UUUGACAACUGAUCGUUCUUUCUUGUACUACUAUUCUUUCUCGAUCAGUUGUCUUU
Kd: 3.13 nM

B7: Ib_S4_P5E.1_K5.1_C5.1_H5.1_A5.1_[T5C]_F5.1_[T9C]_T5.1 (ssRNA)
RNA: UUUGACAACUGAUCGUUCUUUCUUGUACUAUCAUUCUUUCUCGAUCAGUUGUCUUU
Kd: 27.6 nM

B8: Ib_S4_P5E.1_K5.1_C5.1_H5.1_[T3C]_A5.1_F5.1_[A10C]_T5.1 (ssRNA)
RNA: UUUGACAACUGAUCGUUCUUUCUUGCAUUAUUCUUCUUUCUCGAUCAGUUGUCUUU
Kd: 1790 nM

B9: Ib_S4_P5E.1_K5.1_C5.1_H5.1_[T1G]_[A4C]_A5.1_F5.1_T5.1 (ssRNA)
RNA: UUUGACAACUGAUCGUUCUUUCUGGUCUUAUUAUUCUUUCUCGAUCAGUUGUCUUU
Kd: > 2300 nM

B10: Ib_S4_P5E.1_K5.1_C5.1_H5.1_A5.1_[A7G]_F5.1_[A10G]_T5.1 (ssRNA)
RNA: UUUGACAACUGAUCGUUCUUUCUUGUAUUGUUGUUCUUUCUCGAUCAGUUGUCUUU
Kd: 52.3 nM

B11: Ib_S4_P5E.1_K5.1_C5.1_H5.1_[T1C]_A5.1_F5.1_[A10C]_T5.1 (ssRNA)
RNA: UUUGACAACUGAUCGUUCUUUCUCGUAUUAUUCUUCUUUCUCGAUCAGUUGUCUUU
Kd: > 2300 nM

B12: Ib_S4_P5E.1_K5.1_C5.1_H5.1_[T1A]_[T3C]_A5.1_F5.1_T5.1 (ssRNA)
RNA: UUUGACAACUGAUCGUUCUUUCUAGCAUUAUUAUUCUUUCUCGAUCAGUUGUCUUU
Kd: > 2300 nM

B13: Ic_S4_P5E.1_K5.1_C5.1_H5.1_A5.1_[A7C]_F5.1_[A10T]_T5.1 (ssRNA)
RNA: UUUGACAACUGAUCGUUCUUUCUUGUAUUCUUUUUCUUUCUCGAUCAGUUGUCUUU
Kd: 13.8 nM

B14: Ib_S4_P5E.1_K5.1_C5.1_H5.1_A5.1_[A7T]_F5.1_[T8C]_T5.1 (ssRNA)
RNA: UUUGACAACUGAUCGUUCUUUCUUGUAUUUCUAUUCUUUCUCGAUCAGUUGUCUUU
Kd: 3.12 nM

B15: Ib_S4_P5E.1_K5.1_C5.1_H5.1_A5.1_[T5C]_F5.1_[A10T]_T5.1 (ssRNA)
RNA: UUUGACAACUGAUCGUUCUUUCUUGUACUAUUUUUCUUUCUCGAUCAGUUGUCUUU
Kd: 4.98 nM

B16: Ib_S4_P5E.1_K5.1_C5.1_H5.1_A5.1_[A7C]_F5.1_[T8G]_T5.1 (ssRNA)
RNA: UUUGACAACUGAUCGUUCUUUCUUGUAUUCGUAUUCUUUCUCGAUCAGUUGUCUUU
Kd: 10.4 nM

B17: Ib_S4_P5E.1_K5.1_C5.1_H5.1_A5.1_[T5G]_F5.1_[T9A]_T5.1 (ssRNA)
RNA: UUUGACAACUGAUCGUUCUUUCUUGUAGUAUAAUUCUUUCUCGAUCAGUUGUCUUU
Kd: 7.64 nM

B18: Ib_S4_P5E.1_K5.1_C5.1_H5.1_A5.1_[T6A]_F5.1_[T8C]_T5.1 (ssRNA)
RNA: UUUGACAACUGAUCGUUCUUUCUUGUAUAACUAUUCUUUCUCGAUCAGUUGUCUUU
Kd: 5.07 nM

B19: Ib_S4_P5E.1_K5.1_C5.1_H5.1_[T1C]_[A4T]_A5.1_F5.1_T5.1 (ssRNA)
RNA: UUUGACAACUGAUCGUUCUUUCUCGUUUUAUUAUUCUUUCUCGAUCAGUUGUCUUU
Kd: 1050 nM

B20: Ib_S4_P5E.1_K5.1_C5.1_H5.1_[G2C]_[A4G]_A5.1_F5.1_T5.1 (ssRNA)
RNA: UUUGACAACUGAUCGUUCUUUCUUCUGUUAUUAUUCUUUCUCGAUCAGUUGUCUUU
Kd: 455 nM

B21: Ib_S4_P5E.1_K5.1_C5.1_H5.1_[A4T]_A5.1_F5.1_[A10T]_T5.1 (ssRNA)
RNA: UUUGACAACUGAUCGUUCUUUCUUGUUUUAUUUUUCUUUCUCGAUCAGUUGUCUUU
Kd: 119 nM

B22: Ib_S4_P5E.1_K5.1_C5.1_H5.1_A5.1_[T6C]_F5.1_[A10T]_T5.1 (ssRNA)
RNA: UUUGACAACUGAUCGUUCUUUCUUGUAUCAUUUUUCUUUCUCGAUCAGUUGUCUUU
Kd: 7.7 nM

B23: Ib_S4_P5E.1_K5.1_C5.1_H5.1_A5.1_[A7T]_F5.1_[A10G]_T5.1 (ssRNA)
RNA: UUUGACAACUGAUCGUUCUUUCUUGUAUUUUUGUUCUUUCUCGAUCAGUUGUCUUU
Kd: 9.13 nM

B24: Ib_S4_P5E.1_K5.1_C5.1_H5.1_[G2A]_[T3A]_A5.1_F5.1_T5.1 (ssRNA)
RNA: UUUGACAACUGAUCGUUCUUUCUUAAAUUAUUAUUCUUUCUCGAUCAGUUGUCUUU
Kd: 2140 nM

B25: Ib_S4_P5E.1_K5.1_C5.1_H5.1_[A4T]_A5.1_F5.1_[T9A]_T5.1 (ssRNA)
RNA: UUUGACAACUGAUCGUUCUUUCUUGUUUUAUAAUUCUUUCUCGAUCAGUUGUCUUU
Kd: 33.2 nM

B26: Ib_S4_P5E.1_K5.1_C5.1_H5.1_A5.1_[T5G]_F5.1_[T8C]_T5.1 (ssRNA)
RNA: UUUGACAACUGAUCGUUCUUUCUUGUAGUACUAUUCUUUCUCGAUCAGUUGUCUUU
Kd: 13.1 nM

B27: Ib_S4_P5E.1_K5.1_C5.1_H5.1_[G2A]_A5.1_F5.1_[A10T]_T5.1 (ssRNA)
RNA: UUUGACAACUGAUCGUUCUUUCUUAUAUUAUUUUUCUUUCUCGAUCAGUUGUCUUU
Kd: 259 nM

B28: Ib_S4_P5E.1_K5.1_C5.1_H5.1_[A4C]_A5.1_F5.1_[A10C]_T5.1 (ssRNA)
RNA: UUUGACAACUGAUCGUUCUUUCUUGUCUUAUUCUUCUUUCUCGAUCAGUUGUCUUU
Kd: 493 nM

B29: Ib_S4_P5E.1_K5.1_C5.1_H5.1_[A4G]_A5.1_F5.1_[A10C]_T5.1 (ssRNA)
RNA: UUUGACAACUGAUCGUUCUUUCUUGUGUUAUUCUUCUUUCUCGAUCAGUUGUCUUU
Kd: 105 nM

B30: Ib_S4_P5E.1_K5.1_C5.1_H5.1_A5.1_[A7T]_F5.1_[T9C]_T5.1 (ssRNA)
RNA: UUUGACAACUGAUCGUUCUUUCUUGUAUUUUCAUUCUUUCUCGAUCAGUUGUCUUU
Kd: 69.4 nM

B31: Ib_S4_P5E.1_K5.1_C5.1_H5.1_A5.1_[A7G]_F5.1_[T8C]_T5.1 (ssRNA)
RNA: UUUGACAACUGAUCGUUCUUUCUUGUAUUGCUAUUCUUUCUCGAUCAGUUGUCUUU
Kd: 14.9 nM

B32: Ib_S4_P5E.1_K5.1_C5.1_H5.1_A5.1_[A7C]_F5.1_[T9C]_T5.1 (ssRNA)
RNA: UUUGACAACUGAUCGUUCUUUCUUGUAUUCUCAUUCUUUCUCGAUCAGUUGUCUUU
Kd: 56 nM

B33: Ib_S4_P5E.1_K5.1_C5.1_H5.1_A5.1_[T6A]_F5.1_[T8A]_T5.1 (ssRNA)
RNA: UUUGACAACUGAUCGUUCUUUCUUGUAUAAAUAUUCUUUCUCGAUCAGUUGUCUUU
Kd: 9.5 nM

B34: Ic_S4_P5E.1_K5.1_C5.1_H5.1_A5.1_[T6C]_F5.1_[T9A]_T5.1 (ssRNA)
RNA: UUUGACAACUGAUCGUUCUUUCUUGUAUCAUAAUUCUUUCUCGAUCAGUUGUCUUU
Kd: 1.47 nM

B35: Ib_S4_P5E.1_K5.1_C5.1_H5.1_A5.1_[A7T]_F5.1_[T8G]_T5.1 (ssRNA)
RNA: UUUGACAACUGAUCGUUCUUUCUUGUAUUUGUAUUCUUUCUCGAUCAGUUGUCUUU
Kd: 3.74 nM

B36: Ib_S4_P5E.1_K5.1_C5.1_H5.1_A5.1_[T5A]_F5.1_[A10C]_T5.1 (ssRNA)
RNA: UUUGACAACUGAUCGUUCUUUCUUGUAAUAUUCUUCUUUCUCGAUCAGUUGUCUUU
Kd: 29.4 nM

B37: Ib_S4_P5E.1_K5.1_C5.1_H5.1_[T1A]_[A4G]_A5.1_F5.1_T5.1 (ssRNA)
RNA: UUUGACAACUGAUCGUUCUUUCUAGUGUUAUUAUUCUUUCUCGAUCAGUUGUCUUU
Kd: 1260 nM

B38: Ib_S4_P5E.1_K5.1_C5.1_H5.1_A5.1_[T5A]_F5.1_[T8A]_T5.1 (ssRNA)
RNA: UUUGACAACUGAUCGUUCUUUCUUGUAAUAAUAUUCUUUCUCGAUCAGUUGUCUUU
Kd: 13.8 nM

B39: Ib_S4_P5E.1_K5.1_C5.1_H5.1_[T1C]_[T3C]_A5.1_F5.1_T5.1 (ssRNA)
RNA: UUUGACAACUGAUCGUUCUUUCUCGCAUUAUUAUUCUUUCUCGAUCAGUUGUCUUU
Kd: > 2300 nM

B40: Ib_S4_P5E.1_K5.1_C5.1_H5.1_A5.1_[A7G]_F5.1_[T9C]_T5.1 (ssRNA)
RNA: UUUGACAACUGAUCGUUCUUUCUUGUAUUGUCAUUCUUUCUCGAUCAGUUGUCUUU
Kd: 393 nM

B41: Ib_S4_P5E.1_K5.1_C5.1_H5.1_[T1C]_[G2T]_A5.1_F5.1_T5.1 (ssRNA)
RNA: UUUGACAACUGAUCGUUCUUUCUCUUAUUAUUAUUCUUUCUCGAUCAGUUGUCUUU
Kd: > 2300 nM

B42: Ia_S4_P4E.1_K4.1_C4.1_H4.1_[A4G]_A4.1_F4.1_T4.1 (ssRNA)
RNA: UUUGACAACUGAUCGUUCUUUCUUGUGUAUUAUUCUUUCUCGAUCAGUUGUCUUU
Kd: 1.25 nM

B43: Ia_S4_P4E.1_K4.1_C4.1_H4.1_A4.1_[T5C]_F4.1_T4.1 (ssRNA)
RNA: UUUGACAACUGAUCGUUCUUUCUUGUACAUUAUUCUUUCUCGAUCAGUUGUCUUU
Kd: 0.303 nM

B44: Ic_S4_P4E.1_K4.1_C4.1_H4.1_A4.1_[T5A]_F4.1_T4.1 (ssRNA)
RNA: UUUGACAACUGAUCGUUCUUUCUUGUAAAUUAUUCUUUCUCGAUCAGUUGUCUUU
Kd: 1.69 nM

B45: Ia_S4_P4E.1_K4.1_C4.1_H4.1_A4.1_[A6C]_F4.1_T4.1 (ssRNA)
RNA: UUUGACAACUGAUCGUUCUUUCUUGUAUCUUAUUCUUUCUCGAUCAGUUGUCUUU
Kd: 2.17 nM
